This data set in a line: yeast display, Sf9 membrane polyspecificity reagent, FACS + sequencing; frameworks hold sequencing errors. The gist of the method: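 Using colony PCR, genes from sorted yeast display clones were amplified, then sequenced on MiSeq at 2 × 250 and filtered by CDR length. The clones had been stained with 10% biotinylated, detergent-solubilized Sf9 membrane reagent for 1 hour at 4 °C and sorted by FACS into low and high (top ~1%) gates on anti-HA and streptavidin fluorescence. Polyreactivity labels come from the gate of origin.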
On to “QVQLVESGGGLVQAGGSLRLSCAASGRIFYSYAMGWYRQAPGKERELVAALYSDGSTDYADSVKGRFTISRDNAKNTVYLQMNSLTPEDTAVYFCAADWGWRYVLPVGWFRYGYWGQGTQVTVSS”, for which the “polyreactivity (PSR sort gate)” value is reported as “low polyreactivity”.

For the sequence “QVQLVESGGGLVQAGGSLRLSCAASGRIFYSYAMGWYRQAPGKERELVASITSSGGSTYADSVKGRFTISRDNAKNTVYLQMNSLKPEDTAVYYFDYWGQGTQVTVSS”, the “polyreactivity (PSR sort gate)” value is “low polyreactivity”. In the case of “QVQLVESGGGLVQAGGSLRLSCAASGRIFYSYAMGWYRQAPGKERELVATITRRGSSTYYADSVKGRFTISRDNAKNTVYLQMNSLKPEDTAVYYCNAVGVRRAIGYPSQTEYGYWGQGTQVTVSS” it was “high polyreactivity”; in that of “QVQLVESGGGLVQAGGSLRLSCAASGRIFYSYGMGWYRQAPGKERELVASITISGGGSTYYADSVKGRFTISRDNAKNTVYLQMNSLKPEDTAVYYCAATRTVWKYIYDYWGQGTQVTVSS”, “high polyreactivity”; in that of “QVQLVESGGGLVQAGGSLRLSCAASGRIFYTNAMGWYRQAPGKERELVAVISWGGDTTYYADSVKGRFTISRDNATNTVYLQMNSLKPEDTAVYYCNADWGPTYEIYDSWGQGTQVTVSS”, “low polyreactivity”. “QVQLVESGGGLVQAGGSLRLSCAASGRIFYTYAMGWYRQAPGKERELVAAINRSGSSTYYADSVKGRFTISRDNAKNTVYLQMNSLKPEDTAVYYCNAQSYRYYGWVLTDVDYWGQGTQVTVSS”: the “polyreactivity (PSR sort gate)” value is on record as “low polyreactivity”. As to “QVQLVESGGGLVQAGGSLRLSCAASGRIFYTYAMGWYRRAPGKERELVAAIRISGVRTYYADSVKGRFTISRDNAKNTVYLQMNSLKPEDTAVYYCAADSYGDRMDYWGQGTQVTVSS”, the “polyreactivity (PSR sort gate)” value was “high polyreactivity”. In the case of “QVQLVESGGGLVQAGGSLRLSCAASGRIFYTYAMGWYRTAPGKERELVAAISSRTGSTYYADSVKWRFTISRDNAKNTVYLQMNSLKPEDTAVYYCNAYRLRYGYDYWGQGTQVTVSS” it was “high polyreactivity”; in that of “QVQLVESGGGLVQAGGSLRLSCAASGRIFYTYVMGWYIQAPGKERELVASISSSGGSTNYADSVKGRFTISRDNAKNTVYLQMNSLKPEDTAVYYCNKDYIHVSYREDYWGQGTQVTVSS”, “low polyreactivity”. To “QVQLVESGGGLVQAGGSLRLSCAASGRIFYVNAMGWYRQAPGKERELVATIRYSGGSTYYADSVKGRFTISRDNAKNTVYLQMNSLKPEDTAVYYCAARVADYYPGRGYGYWGQGTQVTVSS” belongs “high polyreactivity”; to “QVQLVESGGGLVQAGGSLRLSCAASGRIFYVYAMGWYRQAPGKERELVATIDWSGGSTYYADSVKGRFTISRDNAKITVYLQMNSLKPEDTAVYYCAAYYTSYWGYDYDYWGQGTQVTVSS”, “low polyreactivity”. To “QVQLVESGGGLVQAGGSLRLSCAASGRIFYWNAMGWYRQAHGKERELVAAISWSGGSTYYADSVKGRFTISRDNAKNTVYLQMNSLKPEDTAVYYCAADGGRRTYYVKYDYWGQGTQVTASS” belongs “low polyreactivity”; to “QVQLVESGGGLVQAGGSLRLSCAASGRIFYWNAMGWYRQAPGKEREFVAAISWSGGSTYADSVKGRFTISRDNAKNTVYLQMNSLKPEDTAVYYCATRVYRSFRAYDYWGQGTQVTVSS”, “high polyreactivity”; to “QVQLVESGGGLVQAGGSLRLSCAASGRIFYWNPMGWYRQAHGKERELVAAISWSGGSTYYADSVKGRFTISRDNAKNTVYLQMNRLKPEDTAVYYCARKYRSPISALMTGDYWGQGTQVTVSS”, “low polyreactivity”. Take “QVQLVESGGGLVQAGGSLRLSCAASGRIFYWYGMGWYRQAPGKERELVAGITYSASRTYYADSVKGRFTISRDNVKNTVYLQMNCMKPEVTAVYYCAAGRYHRDDGYDYWGQGTQVTVSS”: the “polyreactivity (PSR sort gate)” value is on record as “low polyreactivity”.

For “QVQLVESGGGLVQAGGSLRLSCAASGRIFYYAMGWYRQAPGKEREFVAAISGSGGSTNYADSVKGRFTISRDNAKNTVYLQMNSLKPEDTAVYYCNAESWSWGFIYEYEYWGQGTQVTVSW”, the “polyreactivity (PSR sort gate)” value is given as “high polyreactivity”. In the case of “QVQLVESGGGLVQAGGSLRLSCAASGRIFYYNAMGWYRQAPGKERELVAAIRSSGGTTYYADSVKGRFTISRDNAKNTVYLQMNSLKPEDTAVYYCNARYWVYYVYEYDSWGQGTQVTVSS” it was “low polyreactivity”.

As to “QVQLVESGGGLVQAGGSLRLSCAASGRIFYYNAMGWYRQAPGKERELVAAITFDGGRTYYADSVKGRFTISRDNAKNTVYLQMNSLKPEDTAVYYCAASWYYSDFYMYYWGQGTQVTVSS”, the “polyreactivity (PSR sort gate)” value is reported as “high polyreactivity”. To “QVQLVESGGGLVQAGGSLRLSCAASGRIFYYNAMGWYRQAPGKERELVAAITKSSGSTYYADSVKGRFTISRDNAKNTVFLQMNSLKPEDTAVYYCAKDKYLVFGFVGGDYWGQGTQVTVSS” belongs “low polyreactivity”; to “QVQLVESGGGLVQAGGSLRLSCAASGRIFYYNAMGWYRQAPGKERELVAAITRTGGSTYYADSVKGRFTISRDNAKNTVYLQMNSLKPEDTAVYYCAAYGGRDIRFEYWGQGTQVTVSS”, “high polyreactivity”; to “QVQLVESGGGLVQAGGSLRLSCAASGRIFYYNAMGWYRQAPGKERELVARISSGGSTNYADSVKGRFTISRDNAKNTVYLQMNSLKPEDTAVYYCAVAKGGLAWGVGRAGRYDFWGQGTQVTVSS”, “low polyreactivity”. In the case of “QVQLVESGGGLVQAGGSLRLSCAASGRIFYYNAMGWYRQSPGKEREFVAAISSGGGSTYYADSVKGRFTISRDNAKNTVYLQMNSLKPEDTAVYYCAAKRQFYRGPAQALSGYGYWGQGTQVTVSS” it was “high polyreactivity”; in that of “QVQLVESGGGLVQAGGSLRLSCAASGRIFYYNDMGWYRQAPGKERELVAAITWTDDGTYYADSVKGRFTISRDNAKNTVYLQMNSLKPEDTAVYYCAAESFYGFEYWGQGTQVTVSS”, “low polyreactivity”. In the case of “QVQLVESGGGLVQAGGSLRLSCAASGRIFYYNPMGWYRQAPAKERELVAAISWDGGSTYYADSVKGRFTISRDNAKNTFYLEMNCLKAEDTAVYYCAVDLYGTWYPTWFNYWGQGTQVTVSS” it was “low polyreactivity”; in that of “QVQLVESGGGLVQAGGSLRLSCAASGRIFYYYAMGGYRQAPWKERELVATISRAGITNYADSVKGRFTISRANAKNTVYLQMNSLKPEDTAVYYCAATFYPWRYHYEYWGQGTQVTVSS”, “high polyreactivity”. Turning to “QVQLVESGGGLVQAGGSLRLSCAASGRIFYYYAMGWSRPAPGTERELVASITFSGGRTFYADSVKGRFTISRDNAKKTVYLQMNSLKPEDTAVYYCAAVRWGRRSGGLVAEYDYWGQGTQVNVSS”, the “polyreactivity (PSR sort gate)” value is given as “high polyreactivity”. In the case of “QVQLVESGGGLVQAGGSLRLSCAASGRIFYYYAMGWYRQAPGKERELVAAISQRGGRTYYADSVKGRFTISRDNAKNTVYLQMNSLKPEDTAVYYCNDYPVYGRYTHYGYGHWGQGTQVTVSS” it was “high polyreactivity”; in that of “QVQLVESGGGLVQAGGSLRLSCAASGRIFYYYAMGWYRQAPGKERELVAAISTDVGGTFYAESVKGRFTISRANAKNTVYLQMNSLKPEDTAVDYCAVEYLWHGDEHDYWGQGTQVTVSS”, “high polyreactivity”.

As for “QVQLVESGGGLVQAGGSLRLSCAASGRIFYYYAMGWYRQAPGKERELVADITSGGSTNYADSVKGRFTISRDNAKNTVYLQMNSLKPEDTAVYYCAAEYGDVYVWTYDYWGQGTQVTVSS”, the “polyreactivity (PSR sort gate)” value is given as “high polyreactivity”. To “QVQLVESGGGLVQAGGSLRLSCAASGRIFYYYAMGWYRQAPGKERELVASINSVGTTTYADSVKGRFTISRDNAKNTVYLKMNSLKPEDTAVYYCARDTGCIYYDGYAYDYWGQGTEVTVSS” belongs “low polyreactivity”.

The values above are taken from the nanobody polyreactivity screen of Harvey et al. (2022).
